These results are taken from article PMC11123335.

The target in assay [1] is pentameric IgM 2G12 (UniProt P01591). The experiment in a line: ELISA; competition: IgM coated (2 µg/mL); serially diluted ACB or AD2 mixed with a constant sC1q (10 µg/mL final); TBS with 2% PVP, 5 mM CaCl2, 1.5 mM MgCl2; room temperature; bound sC1q detected with anti-C1q HRP; relative IC50: OD at the highest mimetic value as 100%, without mimetic as 0%, approximate values.

Assay [2] concerns the target hexameric IgM 2G12 (human). The description is as above.
Assay [3] has as its target pentameric IgM HB617 (UniProt P01591). The assay is described as above.
Assay [4] shares this target.

For “C1q mimetic ACB (single-chain globular region of C1q) (from UniProt P02745 115-245; P02747 115-245; P02746 117-253)”, the maximal inhibition of sC1q binding in assay [1] was determined as 59%; in assay [2], 77%; in assay [3] it was 70%. The relative IC50 in assay [1], in assay [2] and in assay [3] was 1.3 µg/mL throughout. The substance also came in with a percent inhibition of sC1q binding at 2.5–20 µg/mL ACB (lower end) in assay [2] of 67 to 77%. For the same substance, in assay [4], the competitive complement activation ELISA, reduction in C4b deposition by ACB against sC1q on coated 5IgM HB617; 8-fold (20% reduction) to 16-fold (w/w) excess of ACB over sC1q amounted to 60%.
“C1q mimetic ACB-AD2 (ACB fused to domain 2 of human serum albumin) (from UniProt P02745 115-245; P02747 115-245; P02746 117-253; P02768 211-403)”: the maximal inhibition of sC1q binding amounted to 23% in assay [1], 47% in assay [2] and 39% in assay [3]. Further, the relative IC50 in assay [1] turned out to be 1.3 µg/mL; in assay [2], 0.6 µg/mL; in assay [3], 1.3 µg/mL.
